Data as given in US20180086826A1.

Tests used:
[1] = biological target: meditope-enabled Trastuzumab Fab (original, Ile83); assay: SPR, 37 °C, immobilized memAb
[2] = biological target: I83E trastuzumab memAb Fab; assay: SPR, 37 °C; against the original meditope on the original trastuzumab memAb Fab
[3] = biological target: meditope-enabled Trastuzumab Fab (original, Ile83); assay: as above
[4] = biological target: I83E trastuzumab memAb Fab; assay: SPR, 37 °C
HER2 = HER2 (UniProt P04626); assay: SPR, immobilized HER2, 25 °C
[5] = biological target: meditope-enabled Trastuzumab Fab (original, Ile83); assay: SPR, 37 °C

Row | Kd [1] | τ1/2 [1] | fold increase in affinity [2] | fold increase in affinity [3] | Kd [4] | τ1/2 [4] | Kd (HER2) | koff [4] | τ1/2 [5] | Substance
1 | 41 nM | 60 s | 1160 fold | 25 fold | 0.86 nM | 2400 s | – | – | – | 5-diphenyl meditope (peptide)
2 | – | – | – | – | – | – | 0.044 nM | – | – | I83E trastuzumab memAb Fab
3 | 1000 nM | – | 25 fold | – | 38 nM | 280 s | – | 0.0025 s⁻¹ | 16 s | original meditope (peptide)
